Source: publication PMC12505888, “Inhibitory activities of monoclonal antibodies against Staphylococcus aureus clumping factor A” (mBio, 2025)

Experiments:
[1] = target: A domain of S. aureus Newman ClfA (clumping factor A), residues 40-559 (Staphylococcus aureus Newman) (UniProt Q53653); experiment: ELISA; ClfA-A Newman immobilised (100 ng per well); serial dilutions of human complement factor I (20 μg/mL); detected with rabbit anti-factor I polyclonal antibody and anti-rabbit HRP
[2] = target: A domain of ClfA from S. aureus strain WU1 (Staphylococcus aureus WU1); experiment: ELISA; ClfA-A proteins immobilised (100 ng per well, carbonate/bicarbonate buffer pH 9.6, 4°C overnight); serial dilutions of soluble human fibrinogen (4 mg/mL) in PBS; bound fibrinogen detected with anti-human fibrinogen-HRP, A450
[3] = target: A domain of ClfA from S. aureus strain N315 (Staphylococcus aureus N315) (UniProt Q99VJ4); experiment: as above
[4] = target: A domain of ClfA from S. aureus strain USA300 LAC (Staphylococcus aureus USA300 LAC); experiment: as above
[5] = target: Human von Willebrand factor (human) (UniProt P04275); experiment: ELISA; human vWF immobilised; vWbp with ClfA-A carrying only His tag added to the reaction; bound vWbp assessed with anti-StrepII antibody
[6] = target: Human von Willebrand factor (human) (UniProt P04275); experiment: ELISA; human vWF immobilised (100 ng per well); serial dilutions of recombinant ClfA-A (20 μg/mL) or recombinant vWbp (5 μg/mL); detected with anti-StrepII or anti-His HRP antibody
[7] = target: T1, A domain of S. aureus Newman ClfA (clumping factor A), residues 40-559 (Staphylococcus aureus Newman, UniProt Q53653 40-559); experiment: ELISA; ClfA-A proteins immobilised (100 ng per well, carbonate/bicarbonate buffer pH 9.6, 4°C overnight); serial dilutions of soluble human fibrinogen (4 mg/mL) in PBS; bound fibrinogen detected with anti-human fibrinogen-HRP, A450; conditions: both partners purified
T1 construct: Cloned in pET15b (NdeI/BamHI); also called ClfA-A; ClfA-A Newman; source: E. coli BL21, purified (Ni-NTA resin followed by Streptactin resin); not shown: His6, N-terminal, kept
T1 sequence: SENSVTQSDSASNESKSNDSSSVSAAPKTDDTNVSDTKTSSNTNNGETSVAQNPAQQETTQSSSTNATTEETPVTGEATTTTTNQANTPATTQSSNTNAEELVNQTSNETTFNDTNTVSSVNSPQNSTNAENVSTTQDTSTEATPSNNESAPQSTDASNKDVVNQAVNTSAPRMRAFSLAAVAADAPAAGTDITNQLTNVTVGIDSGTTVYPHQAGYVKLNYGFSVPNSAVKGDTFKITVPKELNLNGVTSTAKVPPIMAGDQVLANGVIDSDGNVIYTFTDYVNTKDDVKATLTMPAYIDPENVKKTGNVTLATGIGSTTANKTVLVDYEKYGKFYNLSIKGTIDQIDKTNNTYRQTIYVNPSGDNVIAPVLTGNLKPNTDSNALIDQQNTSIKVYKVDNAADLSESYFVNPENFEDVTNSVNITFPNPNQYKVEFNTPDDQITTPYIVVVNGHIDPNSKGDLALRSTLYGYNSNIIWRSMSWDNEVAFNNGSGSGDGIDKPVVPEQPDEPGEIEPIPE

Molecule Human complement factor I (enzyme) has an EC50 [1] of 1800 nM.

“Human fibrinogen (from UniProt P02671-2 20-644; P02675 31-491; P02679-2 27-437) (complex)” was tested, and the EC50 [2] was 1100 nM, the EC50 [3] was 1300 nM and the EC50 [4] was 1000 nM.

In the case of “vWbp + ClfA-A Newman (from UniProt Q53653 40-559) (complex)”, the EC50 [5] is reported as 3500 nM.

“von Willebrand binding protein (vWbp) of S. aureus Newman, recombinant (natural protein)” was tested, and the EC50 [6] was 14500 nM.

B1: Human fibrinogen (complex)
chain 1: ADSGEGDFLAEGGGVRGPRVVERHQSACKDSDWPFCSDEDWNYKCPSGCRMKGLIDEVNQDFTNRINKLKNSLFEYQKNNKDSHSLTTNIMEILRGDFSSANNRDNTYNRVSEDLRSRIEVLKRKVIEKVQHIQLLQKNVRAQLVDMKRLEVDIDIKIRSCRGSCSRALAREVDLKDYEDQQKQLEQVIAKDLLPSRDRQHLPLIKMKPVPDLVPGNFKSQLQKVPPEWKALTDMPQMRMELERPGGNEITRGGSTSYGTGSETESPRNPSSAGSWNSGSSGPGSTGNRNPGSSGTGGTATWKPGSSGPGSTGSWNSGSSGTGSTGNQNPGSPRPGSTGTWNPGSSERGSAGHWTSESSVSGSTGQWHSESGSFRPDSPGSGNARPNNPDWGTFEEVSGNVSPGTRREYHTEKLVTSKGDKELRTGKEKVTSGSTTTTRRSCSKTVTKTVIGPDGHKEVTKEVVTSEDGSDCPEAMDLGTLSGIGTLDGFRHRHPDEAAFFDTASTGKTFPGFFSPMLGEFVSETESRGSESGIFTNTKESSSHHPGIAEFPSRGKSSSYSKQFTSSTSYNRGDSTFESKSYKMADEAGSEADHEGTHSTKRGHAKSRPVRGIHTSPLGKPSLSP
chain 2: QGVNDNEEGFFSARGHRPLDKKREEAPSLRPAPPPISGGGYRARPAKAAATQKKVERKAPDAGGCLHADPDLGVLCPTGCQLQEALLQQERPIRNSVDELNNNVEAVSQTSSSSFQYMYLLKDLWQKRQKQVKDNENVVNEYSSELEKHQLYIDETVNSNIPTNLRVLRSILENLRSKIQKLESDVSAQMEYCRTPCTVSCNIPVVSGKECEEIIRKGGETSEMYLIQPDSSVKPYRVYCDMNTENGGWTVIQNRQDGSVDFGRKWDPYKQGFGNVATNTDGKNYCGLPGEYWLGNDKISQLTRMGPTELLIEMEDWKGDKVKAHYGGFTVQNEANKYQISVNKYRGTAGNALMDGASQLMGENRTMTIHNGMFFSTYDRDNDGWLTSDPRKQCSKEDGGGWWYNRCHAANPNGRYYWGGQYTWDMAKHGTDDGVVWMNWKGSWYSMRKMSMKIRPFFPQQ
chain 3: YVATRDNCCILDERFGSYCPTTCGIADFLSTYQTKVDKDLQSLEDILHQVENKTSEVKQLIKAIQLTYNPDESSKPNMIDAATLKSRKMLEEIMKYEASILTHDSSIRYLQEIYNSNNQKIVNLKEKVAQLEAQCQEPCKDTVQIHDITGKDCQDIANKGAKQSGLYFIKPLKANQQFLVYCEIDGSGNGWTVFQKRLDGSVDFKKNWIQYKEGFGHLSPTGTTEFWLGNEKIHLISTQSAIPYALRVELEDWNGRTSTADYAMFKVGPEADKYRLTYAYFAGGDAGDAFDGFDFGDDPSDKFFTSHNGMQFSTWDNDNDKFEGNCAEQDGSGWWMNKCHAGHLNGVYYQGGTYSKASTPNGYDNGIIWATWKTRWYSMKKTTMKIIPFNRLTIGEGQQHHLGGAKQAGDV
notes: Fibrinogen A-alpha chain, human; Fibrinogen B-beta chain, human; Fibrinogen gamma chain, human; also called Fg; source: bought: Sigma; copies: 2 + 2 + 2
For B1, the EC50 [7] was 1300 nM.
